Source: a protein production outcome set (Wang et al. 2014)

Test: label from the status in PepcDB records
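Note: failed if final PepcDB status was selected cloned or expressed and not failed if soluble or beyond.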

Row | Sequence | protein production
1 | MNIVENEICIRTLIDDDFPLMLKWLTDERVLEFYGGRDKKYTLESLKKHYTEPWEDEVFRVIIEYNNVPIGYGQIYKMYDELYTDYHYPKTDEIVYGMDQFIGEPNYWSKGIGTRYIKLIFEFLKKERNANAVILDPHKNNPRAIRAYQKSGFRIIEDLPEHELHEGKKEDCYLMEYRYDDNATNVKAMKYLIEHYFDNFKVDSIEIIGSGYDSVAYLVNNEYIFKTKFSTNKKKGYAKEKAIYNFLNTNLETNVKIPNIEYSYISDELSILGYKEIKGTFLTPEIYSTMSEEEQNLLKRDIASFLRQMHGLDYTDISECTIDNKQNVLEEYILLRETIYNDLTDIEKDYIESFMERLNATTVFEGKKCLCHNDFSCNHLLLDGNNRLTGIIDFGDSGIIDEYCDFIYLLEDSEEEIGTNFGEDILRMYGNIDIEKAKEYQDIVEEYYPIETIVYGIKNIKQEFIENGRKEIYKRTYKD | failed
2 | MKVVVITGNLSRPSKTRAVADFMVDRVRASGNEASCWDLVDLHPHLGATVLPSSAAEIVKAALNDILASDVLVVGSPVYKASYTGLLKHLFDLVDMKALKGRYVIPFATGKASSHKPLVEASMEALFDFFEAQIHSRFIFALDEDFQNDALSENLRALVDRELDAARRAVSP | failed
3 | FCGRARVHTDFTPSPYDTDSLKLKKGDIIDIISKPPMGTWMGLLNNKVGTFKFIYVDVLS | not failed
4 | MKELSKSDRTRQFIIESTAPVFNVKGLAGTSLTDLTEATNLTKGSIYGNFENKEAVAIAAFDYNWGHVKSVLTAKVQACNTYKEMLLVYSSMYNDADGSLFPVGGCPLLNTTIEADDTHDALRKKAGEAILSWKKNLVTIIKKGIQAKEFRPDTDVTKIAFSMIALVEGAILIHRATKNRAYSDYVFESLEDLIAGIEVKKK | not failed
5 | MFQTQFSPINFRETKIIKANYKRFHEIRAKVQTETNDALNENEISAIKKSGFRGHVDISYKSSASFSPLPLQQYFTTMKKIVMRKLRSPVSHCMLVTKCQTTLQIGYIDWMESKSLSNIID | failed
6 | MIRIGNLYVYLKNYIMKFTKLTIAFLSVFFCLVVACGSDGINDDPKTPDVTEPVTPNEPDEPDNPSVVKVPTLQKNVQDEWKIDSIDDGFIYYNYERYDDVSKAQQIVNVLEIDLLSNKYKVEFTYNNGDSLSTTAQVRGAIGGINGGYEQEAIYIRINGTNISEVTLPEGHLRYWKHDGALYSDGKSDIGIIYGGRNGKAAIDTYKQHSAKYLLASAPTLIDDYNPLGETFVGNYTMEQLESFDYEDYRRHQGVRHPRTVVAVTEDKDLLLVTIDGRWAGKAEGMSAKEVTLFLKKHFNPQYALNMDGGGSTTMYVKGKGAAKTDVVNYPTDNGVFNHYGQRRVTTHIIVKRK | failed
7 | NTLRELRLFLRDVTKRLATDKRFNIFSKPVSDYLEVIKEPMDLSTVITKIDKHNYLTAKDFLKDIDLICSNALEYNPDKDPGDKIIRHRACTLKDTAHAIIAAELDPEFNKLCEEIKE | not failed
8 | MVFTLADSVSQVALGPSWLDPMELLSGSGPFGSFILPAMLAIVFIESGLLFPLLPGDSLLFTGGLLANQADPFAPLWLVLILCPIAAILGDQVGYWIGHKFHPRLVNRPDGRIFKQEYLKQTEDFFEKHGPVTIILCRFVPIVRTYAPLVAGMAGMRYRTFIIYNMIGGILWGSGVVALGAALGQFDFVRNNIDLIFLLIVFISVVPGLVGMARKLADGHKQANTEPQENPAVQTAPVKTQEAQEAPQN | failed
9 | MRCMSDDHTHVQEFFEARAADWDSRFPDDGPAHAAAVAELGLREGDRVLDAGCGTGRALPSLRAAVGSSGVVVGVDLTPAMLAAAARAGRGRDGHLLLADVTRLPLGTESLDAVFAAGLIAHLPEPAENLRELARVVRAGGTLALFHPIGRAALAARQGRQITPDDLRAEANLGPLLAGSGWRMTSYVDEDARFLALAVRVKLEHHHHHH | failed
10 | MSDVMTLKKSDIYNSDGSVKHTAFIHDKKTGKANTLYLKPVQQDLLQYHDWLVQENINSEWLFPSASHHNRHITEKQFYKVMARVGDLLSINYHYLGTHTMRKTGAYRVYTQSNYNIGLVMHLLNHSSEVMTLTYLGLDHASRETMLDQIDFG | failed
11 | MGDQRFDVLITGGTLVDVVTGELRPADIGIVGALIASVHEPASRRDAAQVIDAGGAYVSPGLIDTHMHIESSMITPAAYAAAVVARGVTTIVWDPHEFGNVHGVDGVRWAAKAIENLPLRAILLAPSCVPSAPGLERGGADFDAAILADLLSWPEIGGIAEIMNMRGVIERDPRMSGIVQAGLAAEKLVCGHARGLKNADLNAFMAAGVSSDHELVSGEDLMAKLRAGLTIELRGSHDHLLPEFVAALNTLGHLPQTVTLCTDDVFPDDLLQGGGLDDVVRRLVRYGLKPEWALRAATLNAAQRLGRSDLGLIAAGRRADIVVFEDLNGFSARHVLASGRAVAEGGRMLVDIPTCDTTVLKGSMKLPLRMANDFLVKSQGAKVRLATIDRPRFTQWGETEADVKDGFVVPPEGATMISVTHRHGMAEPTTKTGFLTGWGRWNGAFATTVSHDSHNLTVFGGNAGDMALAANAVIGTGGGMAVASEGKVTAILPLPLSGLVSDAPLEEVARAFEDLREAVGKVVEWQPPYLVFKACFGATLACNIGPHQTDMGIADVLTGKVMESPVIEVLEHHHHHH | failed
12 | MARPNFRYTHYDLKELRAGTTLEISLSSVNNVRLMTGANFQRFTELLDFKYLGGVAKKSPIRIAVPETMHWHLIIDAEGHSGLAESSVKMLPAQPQATLTRKAS | not failed
13 | HLDASLQEVAEHAFGDYLGGLVALDPNTGGVLALVSKPGFDPNLFVDGIDPETWKSLNESPERPMVNRALRGIYPPGSTIKPLMALAGLELGLREPDDSIDDPGFFRLPNSQHRFRDWKPGGHGIVDLRRSISQSCDIYYYRLAVDMGIDRMHDYLTQFGLGQKTGIDLQGESSGLLPSRAWKQRRWKQPWYPGETVIAGIGQGYHLTTPLQLATMTAMLANGGKRIQPRLVDAVRDPHTRAWQTQAPVMLGEVAIDPENLAVVRQGMMDVTRPGGTAAASAAGAAYGIAGKTGTAQVVGIKQGARYDATRLAREHRDHALFVAYAPAENPVIAVAVMVENGGSGSGTAAPIARAVFDYYLTGKRPGTMKLETDDAAD | failed
14 | MSHNEESPGIGPGAGGQDSTTALIEAINIRSMSLIVLTSIASLYFIEWAQPVLLPLVVAVLISYALDPLVATLDRIHIPRPLGAALVLCTLIAILAAASVPLKQEAMAMLDKIPQAIKELQREDASTSEDEESIMEKAQIAAKQIEETAENREGKPAVQAGVTPVRVVDEPMDVRDYVIRNSPATIVLISQMFSVLLLVFFLLSVGKLYRRKIVRISGPSFRRMRKAARIMNELHHQVRRFLFVMVISALFVGILTWLAFLLLGVEQAALWGVVAGIASGVPYLGPFLVLVGSGVAAFLQFGELNTAVIVALTSLVITSIQGNLLMPWLTSYVSSLNAVAIFIGLLFWGWLWGPVGLIVATPILMIAKSVCDHVVNFRPVGELLGK | failed
15 | ESYTIPHPSYDQPDSYQEREIVIGNSTYPLPATLTVPKHQRGEKVPVVVLVHGAGIHDRDATYLGTKILRDLAVGLSSNGIAVLRYEKRTLEHALKMSAEPVTLDRDTTDDAIYAAKSAAQQEGIDPNNIFILGHSQGAGTMPRILSKAPSSLVRGSILLAPPAHPLTDIAIDQYQYLGKPQEEIDELKRQAAFIQDPTFNPDHPPAGYNFGSPHFMYDVSRWRPVEEAKSRKEPLLILQGARDYQVTVKNEYTKWQEGLANRRNVQFKKYPKLNHFFTEGDGELSLPSEYEIPANVPEYVIQDIITWVNETK | failed
